Measurements published in patent publication US20250186602A1, “HUMANIZED ANTIBODY THAT BONDS TO EVA1 PROTEIN OR FUNCTIONAL FRAGMENT THEREOF, ANTIBODY-DRUG CONJUGATE AND CHIMERIC ANTIGEN RECEPTOR” (CURED INC., priority 2022, published 2025).
“Also recorded” adds a separate entry of the source.

What was measured:
Eval-positive HuCCT-1 = assay: Amplification of Eval-CAR-T after antigen stimulation (co-culture with irradiated Eval-positive HuCCT-1); type: cell-based, human
Experimental: Eval-positive HuCCT-1, was irradiated with a radioactive ray of 100 Gy, and was co-cultured with the CAR-Ts in 1:1, and the amplification efficiencies of these were analyzed. In FIG. 3J, amplification efficiencies in time series are shown. In FIG. 3K, the amplification factors at Day 4 were plotted.
In the same manner as described above, Eval-positive HuCCT-1, was irradiated with a radioactive ray of 100 Gy, and was co-cultured with the CAR-T-cells in 1:1. Then, 50 U/ml of IL-2 was added once every three days, at Day 1, 4, and 7, followed by culturing. In FIG. 3L, the respective amplification efficiencies in time series are shown. In FIG. 3M, the amplification factors at Day 18 were plotted.
In the same manner as described above, Eval-positive HuCCT-1, was irradiated with a radioactive ray of 100 Gy, and was co-cultured with hEva1 CAR-T-cells in 1:1.
In the same manner as described above, Eval-positive HuCCT-1, was irradiated with a radioactive ray of 100 Gy, and was co-cultured with hEva1-CAR-Ts in 1:1.

[1] = tested on: various tumor cell lines (Eval positive and Eval negative); assay: Cytokine production of Eval-CAR-T co-cultured with tumor cell lines (intracellular staining, flow cytometry); type: cell-based, human; settings: co-culture 1:1, 6 hours, Day 17 cells
Experimental: Next, the cytokine production capacity of the Eval-CAR-T using the anti-human Eval mouse antibody sequence was analyzed. Specifically, CAR-T prepared as described above was cultured until day 17, and the cells were co-cultured with various main cell lines in 1:1. After co-culturing for 6 hours, immobilization and intracellular staining (BD cytofix/cytoperm buffer) were conducted to stain the cells with IFN-gamma (IFN-γ).
The experiment was conducted by using the above-described Eval-CAR-Ts at Day 17. Specifically, the Eval-CAR-Ts were co-cultured with tumor cell lines in 1:1, and the cells were immobilized and stained in the same methods as described above after 6 hours, and intracellular IFN-gamma and IL-2 were evaluated with flow cytometry.
(§1) The experiment was conducted by using hEva1-CAR-Ts at Day 17. Specifically, hEva1-CAR-Ts were co-cultured with tumor cell lines in 1:1, and the cells were immobilized and stained in the same manner as described above after 6 hours, and intracellular IFN-gamma and IL-2 were evaluated with flow cytometry. These figures show the percentages at which the cytokine was positive among the CD8 positive cells.
as §1, with “using the above-described” for “using”, “Specifically, the” for “Specifically,”, “after […]” for “after 6”, “which each” for “which the”

[2] = tested on: Human glioma stem cells (hGIC); assay: Cytotoxicity assay of B2E5-ADC against glioma (MTT); type: cell-based
Experimental: Human glioma stem cells (hGIC) were inoculated in a 96-well plate in an amount of 1000 cells per well. […] Then, 5 μl of MTT (5 mg/ml, Wako Pure Chemical) was added to each well, followed by culturing for 2 hours in a CO2 incubator at 37° C. After the culture liquid was discarded, 90 μl of DMSO was added, and after the cells were dissolved, the absorbance (570 nm) was measured by using a benchmark (Bio-Rad).
Note that as a positive control (100%), a measured value in a well in the absence of the antibody was used. In addition, as a negative control (0%), a measured value obtained by adding 5 μl of 1% TritonX100 to a well in the absence of the antibody was used.

hEva1-mouse Fc [3] = assay: Surface plasmon resonance kinetics analysis (BiaCore T200, single-cycle); type: binding, human; settings: SPR, antibody captured 5 nM, analyte hEva1-mouse Fc 1-250 nM, HBS-EP+ pH 7.4
Experimental: (§2) The dissociation constants and association constants of the humanized antibodies and the like were analyzed by using surface plasmon resonance (SPR, product name: BiaCore T200 (manufactured by GE healthcare)).
Specifically, first, human IgG capture antibodies were immobilized on a CM5 chip by an amine coupling method. This immobilization was conducted in both reference cells and active cells. Then, the kinetics analysis on the anti-Eval antibody and hEva1 was conducted by a single-cycle method using the following measurement conditions.
• Sample compartment temperature: 10° C. • Running buffer: HBS-EP+buffer, pH 7.4 • Capturing molecule: Human IgG antibody, reference & active cells • Ligand: Various antibodies 5 nM, active cells only • Analyte: hEva1-mouse Fc1, 5, 25, 125, 250 nM, reference & active cells • Regeneration buffer: 3M MgCl2, reference & active cells • 3 cycles of Blanks (Analyte zero concentration)

hEva1-mouse Fc [4] = target: T1, hEva1-mouse Fc (human, UniProt O60487 27-154, limits assumed); assay: SPR (BiaCore T200), single-cycle kinetics; antibody captured by anti-human IgG on CM5 chip, hEva1-mouse Fc as analyte; antibody made in HEK293T cells
T1 construct: SPR analyte; the '1' is probably the first concentration (1 nM); also called hEva1-mouse Fc1 (so in the source); not shown: mouse Fc
T1 sequence: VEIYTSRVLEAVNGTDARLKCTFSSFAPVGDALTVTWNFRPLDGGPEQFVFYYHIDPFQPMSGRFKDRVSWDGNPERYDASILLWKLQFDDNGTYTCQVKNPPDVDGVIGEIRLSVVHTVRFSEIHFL
Experimental: as §2
Specifically, first, human IgG capture antibodies were immobilized on a CM5 chip by an amine coupling method. […] Then, the kinetics analysis on the anti-Eval antibody and hEva1 was conducted by a single-cycle method using the following measurement conditions.

hEva1-mouse Fc [5] = target: T1, hEva1-mouse Fc; assay: SPR (BiaCore T200), single-cycle kinetics; antibody captured by anti-human IgG on CM5 chip, hEva1-mouse Fc as analyte; antibody made in CHO cells
[6] = 50 U/ml IL-2 at Day 1, 4, 7, co-culture 1:1 with HuCCT-1 irradiated 100 Gy
[7] = absence of IL-2, co-culture 1:1 with HuCCT-1 irradiated 100 Gy

For “15aa: mouse antibody-derived Eval-CAR-T with spacer length 15aa (SEQ ID NO: 59) (EPKSSDKTHTSPPCP; Hinge region:15aa)”, the “amplification efficiency after Eval stimulation” value (from here on “amplification efficiency”) (Eval-positive HuCCT-1; [6]) was “cell amplifications tended to be better; also recorded: most excellent in cell growth” and the “amplification efficiency” value (Eval-positive HuCCT-1; [7]) was “higher cell amplifications”.

In the case of “30aa: mouse antibody-derived Eval-CAR-T with spacer length 30aa (SEQ ID NO: 60) (EPKSSDKTHTSPPCPAPEFLGGPSVFLFPP; Hinge region:30aa)”, the “amplification efficiency” value (Eval-positive HuCCT-1; [6]) is reported as “cell amplifications tended to be better”, the “amplification efficiency” value (Eval-positive HuCCT-1; [7]) is reported as “higher cell amplifications” and the “cytokine production (intracellular IFN-gamma and IL-2)” value (shortened to “cytokine production”) [1] is reported as “excellent cytokine productions”.

B1: 125aa: mouse antibody-derived Eval-CAR-T with spacer length 125aa (SEQ ID NO: 62) (protein)
chain: EPKSSDKTHTSPPCPAPEFLGGPSVFLFPPKPKDTLMISRTPEVTCVVVDVSQEDPEVQFNWYVDGVEVHNAKTKPREEQFNSTYRVVSVLTVLHQDWLNGKEYKCKVSNKGLPSSIEKTISKAK
modifications: Hinge region:125aa
B1 was tested, and the “cytokine production” value [1] was “excellent cytokine productions”.

B2: 232aa: mouse antibody-derived Eval-CAR-T with spacer length 232aa (SEQ ID NO: 63) (protein)
chain: EPKSSDKTHTSPPCPAPEFLGGPSVFLFPPKPKDTLMISRTPEVTCVVVDVSQEDPEVQFNWYVDGVEVHNAKTKPREEQFNSTYRVVSVLTVLHQDWLNGKEYKCKVSNKGLPSSIEKTISKAKGQPREPQVYTLPPSQEEMTKNQVSLTCLVKGFYPSDIAVEWESNGQPENNYKTTPPVLDSDGSFFLYSRLTVDKSRWQEGNVFSCSVMHEALHNHYTQKSLSLSLGK
modifications: Hinge region:232aa
B2 was tested, and the “amplification efficiency” value (Eval-positive HuCCT-1; [6]) was “cell amplifications tended to be better”, the “amplification efficiency” value (Eval-positive HuCCT-1; [7]) was “higher cell amplifications; also recorded: most excellent in cell growth and cytokine production” and the “cytokine production” value [1] was “most excellent cytokine production capacity”.

B3: H2-L2: humanized B2E5-48 IgG1, VH H2 (SEQ ID NO: 13), VL L2 (SEQ ID NO: 7) (antibody, V domains shown)
VH: QVQLVQSGAEVKKPGASVKVSCKASGYTFTNYWMHWVRQAPGQGLEWMGEINPTNGGTDYNEKFQGRVTMTVDKSTSTAYMELSSLRSEDTAVYYCTIYTTALDYWGQGTLVTVSS
VL: EIVLTQSPATLSLSPGERATLSCRASSSVGYMYWYQQKPGQAPRPLIYVTSNRATGIPARFSGSGSGTDYTLTISSLEPEDFAVYYCQQWSSNPPTFGQGTKLEIK
modifications: Variable Region of Heavy Chain 2 (Humanized B2E5-48); Variable Region of Light Chain 2 (Humanized B2E5-48)
In the case of B3, the “cytotoxic activity against hGIC” value [2] is reported as “no cytotoxic activity”, the ka (hEva1-mouse Fc [3]) is reported as 19720 M⁻¹ s⁻¹ and the kd (hEva1-mouse Fc [3]) is reported as 0.009201 s⁻¹.

B4: chimeric human IgG1 (constant regions of the B2E5-48 mouse antibody replaced by those of human IgG type 1) (antibody, V domains shown)
VH: QVQLQQPGAELVKPGASVKLSCKASGYTFTNYWMHWVKLRPGQGFEWIGEINPTNGGTDYNEKFKRKATLTVDKSSSTAYMQLSSLTSEDSAVYYCTIYTTALDYWGQGTTLTVSS
VL: QIVLTQSPALMSASPGERVTLTCSASSSVGYMYWYQQKPGSSPKPWIYVTSNLASGVPARFSGSGSGTSYSLTISSMEAEDAATYYCQQWSSNPPTFGAGTKLELK
notes: Mouse B2E5-48 variable regions on human IgG1 constant regions; The same construct was made in HEK293T cells and in CHO cells and both preparations were measured; also called Chimeric antibody (CHO); Chimeric antibody (293T)
In the case of B4, the Kd (hEva1-mouse Fc [4]) is reported as 482 nM, the koff (hEva1-mouse Fc [4]) is reported as 0.00947 s⁻¹ and the kon (hEva1-mouse Fc [4]) is reported as 19600 M⁻¹ s⁻¹. The Kd (hEva1-mouse Fc [5]) was 445 nM, the koff (hEva1-mouse Fc [5]) was 0.00845 s⁻¹ and the kon (hEva1-mouse Fc [5]) was 19000 M⁻¹ s⁻¹.
